Stoichiometry N data for one substance are collected here from paper doi:10.1101/2023.12.22.572801.

The target in the assay is RbpB (BT_1887), recombinant B. thetaiotaomicron RbpB (B. thetaiotaomicron) (UniProt A9IXD6). As to the kind of experiment: SEC.

“RbpB (BT_1887), recombinant B. thetaiotaomicron RbpB (from UniProt A9IXD6 1-44) (natural protein)”: the stoichiometry N came to 2.
